In patent US20190111164A1:
Where a chain is given by its changes, count along the chain named. Each block holds one binder with its values, some of them ahead of it.

What was measured:
Assay in all cases: glycopeptide microarray, antibody at 50 ug/mL
Tn3 linker = molecular target: Tn3 linker
IgA-Pep11 = molecular target: T1, IgA-Pep11
T1 sequence (peptide, Tn (GalNAc, marked *) on S3, S5 and T9): KPSPSTPPTPSC

IgA-Pep13 = molecular target: T2, IgA-Pep13
T2 sequence (peptide, Tn (GalNAc, marked *) on S3 and T7): KPSTPPTPSPSC

PADRE Tn3b = molecular target: PADRE Tn3b
D-MUC2 = molecular target: T3, D-MUC2
T3 sequence (peptide, N-terminal acetyl; Tn (GalNAc, marked *) on T2 and T3; C-terminal amide): PTTTPLK

B-MUC2 = molecular target: T4, B-MUC2
T4 sequence (peptide, N-terminal acetyl; Tn (GalNAc, marked *) on T3; C-terminal amide): PTTTPLK

RLU (Tn3 linker): 21 RLU
RLU (IgA-Pep11): 311 RLU
RLU (IgA-Pep13): 253 RLU
RLU (PADRE Tn3b): -84 RLU
B1: 2F3 variant #6 (antibody, IgG1, V domains shown)
VH: QVQLLESGGGLVQPGGSLRLSCAASGFTFDSYAMSWVRQAPGKGLEWVSAISGSGASTYYADSVKGRFSISRDNSKNTLYLQMNSLRAEDTAVYYCAIRREYSGYAPFDYWGQGTLVIVSS
VL: DIVMTQTPSSLSASVGDRVTITCRASQGISSWLAWYQQKPEKAPRSLIYAASSLQSGVPSRFSGSGSGTDFTLTISSLQPEDFATYYCQQYISYPYTFGQGTKLEIK

RLU (Tn3 linker): 24 RLU
RLU (D-MUC2): 179 RLU
RLU (B-MUC2): 237 RLU
RLU (PADRE Tn3b): 49 RLU
B2: 2F3 variant #17v2 (antibody, IgG1, V domains shown)
VH: B1 VH with V2I, Q3T, L5R, A56H, S85N, I118T
VL: B1 VL

RLU (Tn3 linker): 8 RLU
RLU (PADRE Tn3b): 13 RLU
B3: 2F3 parent antibody (antibody, V domains shown)
VH: B1 VH with V2I, Q3T, L5R, A56D, I118T
VL: B1 VL
